{
  "source": "patent US20170096460",
  "key": {"ZFP 45643 (synthetic)": {"test_system": "ZFP 45643 (synthetic)", "assay": "cell_activity", "conditions": "AAV9 in mouse striatum, 5 weeks, qRT-PCR; 70% at 12 weeks"}, "ZFP 46025 (synthetic)": {"test_system": "ZFP 46025 (synthetic)", "assay": "cell_activity", "conditions": "AAV9 in mouse striatum, 5 weeks, qRT-PCR"}},
  "data": [
    {"substance": "mutant Htt allele expanded CAG repeat (Q50, 48 CAGs)", "values": [
      {"measurement": "activity", "setting": "ZFP 45643 (synthetic)", "value": 79, "unit": "% repression"},
      {"measurement": "activity", "setting": "ZFP 46025 (synthetic)", "value": 74, "unit": "% repression"}
    ]}
  ]
}
